Laboratory results: patent publication US20250283065A1, “TRUNCATED POLYPEPTIDES HAVING PROTEIN LIGASE ACTIVITY AND METHODS OF PRODUCTION THEREOF” (NANYANG TECHNOLOGICAL UNIVERSITY, priority 2022, published 2025)

How the values were obtained:
TrmJ-NAL = assay: Conjugation of TrmJ with a fluorescent peptide (SDS PAGE); format: biochemical; settings: 200 nM enzyme, 37° C., after an hour of reaction time
Description: Conjugation of TrmJ: A concentration of 200 nM of OaAEP1b-C247A-4351 was used to conjugate 10 μM of TrmJ-NAL with 50 μM of a short fluorescence peptide synthesized by Genscript: GIGGIYRK-FITC (SEQ ID NO:21). This reaction was carried out in a 20 mM NaH2PO4, pH 6.5 at 37° C. for 1 hour with a final volume of 500 μL. A volume of 50 µL of the reaction was mixed with 5×SDS loading dye after 5, 10, 20, 30 and 60 minutes. The amount of conjugated TrmJ-NAL at all time points was then analyzed using SDS PAGE.
To evaluate OaAEP1b-C247A-Δ351 conjugation capability, a protein of 20 kDa, tRNA methyltransferase, TrmJ were conjugated. TrmJ was modified to include the C-terminal OaAEP1b-C247A-Δ351 preferred tripeptide recognition motif (Asn-Ala-Leu). Using 200 nM of OaAEP1b-C247A-Δ351, TrmJ present in the solution was able to conjugate with a short fluorescence peptide consisting of an N-terminal Gly/Ile (GIGGIYRK-FITC) (SEQ ID NO: 21). The conjugation rate at 37° C. was analyzed using SDS PAGE at […] different time points.

[1] = Storage stability of the purified enzyme; format: physicochemical; settings: −80° C.
Description: Refolding and purification of constitutively active OaAEP1b-C247A-4351 using dialysis method: With all steps performed at 4° C., protein purification was achieved by resuspending thawed pellets in 30 mL of lysis buffer (100 mM Bis-Tris, pH 6.5, 500 mM NaCl, 10% (v/v) glycerol), sonicating the pellets followed by clearing the lysates by centrifugation at 58,000 g for 45 min. The insoluble fraction was resolubilized in 10 mL of resolubilizing buffer (50 mM Bis-Tris, pH 6.5, 150 mM NaCl, 1 mM EDTA, 50 mM Glycine, 8 M urea) overnight, with agitation. The concentration of denatured protein was determined using nanodrop and diluted to ˜2 mg mL-1 with buffer 1 (50 mM Bis-Tris, pH 6.5, 150 mM NaCl, 500 mM L-Arginine, 1 M urea, 0.25 mM L-Glutathione oxidized, 2.5 mM L-Glutathione reduced). The diluted denatured protein was dialyzed against buffer 2 (50 mM Bis-Tris, pH 6.5, 150 mM NaCl, 200 mM L-Arginine, 0.125 mM L-Glutathione oxidized, 1.25 mM L-Glutathione reduced) for 8 hr, followed by two buffer exchanges with buffer 3 (20 mM Bis-Tris, pH 6.5, 150 mM NaCl), for a duration of 8 hr for each buffer exchange. The refolded proteins were purified by affinity chromatography (HisTrap column, Cytiva), followed by size exclusion chromatography (HiLoad 16/600 Superdex 200, Cytiva). The proteins eluted as monomers during size exclusion purification. […]

OaAEP1b-C247A-Δ351 = assay: Active site titration by FRET ligation assay with covalent inhibitor; format: biochemical, Oldenlandia affinis; settings: 1 hour incubation with Ac-YVAD-cmk, enzyme 280 nM
Description: Active site titration: The procedure described in reference was followed. The enzyme preparation was diluted to a concentration of 280 nM using a buffer containing 20 mM sodium phosphate at pH 6.5, 5 mM 2-Mercaptoethanol. Solutions containing serial twofold dilution of inhibitor YVAD-cmk were prepared in a black microtiter plate (Greiner Bio-One) using buffer as diluent. The enzyme was subsequently added to the wells containing the inhibitor to a final volume of 50 μL. The plate was incubated for 1 hour at room temperature before adding FRET peptides (PIE {EDANS} YNAL (SEQ ID NO:18) and GIK {DABSYL} SIP (SEQ ID NO: 19)), which were mixed at a molar ratio of 1:3 giving a final enzyme: substrate molar ratio of 1:200. The EDANS fluorescence signal was measured with an excitation wavelength of 336 nm and an emission wavelength of 490 nm. Relative fluorescence units (RFU) of quenched EDANS signal were plotted against time. The value of the initial velocity (Vi) was determined from the slope of the RFU (t) curve. The measured value of Vi was subsequently normalized by dividing with the initial rate obtained in the absence of inhibitor (control V0). The calculated Vi/V0 ratio was plotted against inhibitor concentrations, generating an inhibition curve. […]

B1: OaAEP1b-C247A-Δ351: truncated OaAEP1b-C247A construct, residues 352-474 deleted, D351 as C-terminus; constitutively active peptide asparaginyl ligase (protein)
chain: GTRWAVLIAGSKGYANYRHQAGVCHAYQILKRGGLKDENIVVFMYDDIAYNESNPRPGVIINSPHGSDVYAGVPKDYTGEEVNAKNFLAAILGNKSAITGGSGKVVDSGPNDHIFIYYTDHGAAGVIGMPSKPYLYADELNDALKKKHASGTYKSLVFYLEACESGSMFEGILPEDLNIYALTSTNTTESSWCYYCPAQENPPPPEYNVCLGDLFSVAWLEDSDVQNSWYETLNQQYHHVDKRISHASHATQYGNLKLGEEGLFVYMGSNPANDNYTSLDGNALTPSSIVVNQRDAD
- conjugation of TrmJ with GIGGIYRK-FITC (TrmJ-NAL): most of TrmJ was labelled with FITC
- storage stability [1]: up to two years
- fraction of the measured protein concentration that is active and amenable to complete inhibition (OaAEP1b-C247A-Δ351): about 53%
